Laboratory results as given in article PMC9402439, “Reconstitution of a telomeric replicon organized by CST”.

B1: 9xTEL (ssDNA)
DNA: TTAGGGTTAGGGTTAGGGTTAGGGTTAGGGTTAGGGTTAGGGTTAGGGTTAGGG
B2: 15xTEL (ssDNA)
DNA: TTAGGGTTAGGGTTAGGGTTAGGGTTAGGGTTAGGGTTAGGGTTAGGGTTAGGGTTAGGGTTAGGGTTAGGGTTAGGGTTAGGGTTAGGG

Target: CTC1 (CST subunit);STN1 (CST subunit);TEN1 (CST subunit);Polα-primase, endogenous, co-purified with CST (Homo sapiens;Homo sapiens;Homo …, UniProt Q2NKJ3;Q9H668;Q86WV5;P09884;Q14181;P49642;P49643 …, |||)
Experiment: EMSA; Kd,app shown only in figure; CST EMSA: 20 mM HEPES-NaOH pH 8.0, 150 mM NaCl, 2 mM MgCl2, 0.2 mM EGTA, 0.1% NP-40, 10% glycerol, 1 mM DTT, 2 h on ice, 0.7% agarose 1x TBE gel at 4 °C; POT1-TPP1N EMSA: C-strand synthesis buffer, 30 min at 30 °C
Details: protein: recombinant;recombinant;recombinant;native; tags: N-terminal 3xFLAG;N-terminal Myc;N-terminal HA;; copies: 1;1;1;1;1;1;1; label: 5'-32P; folds into G-quadruplex in KCl and NaCl, not LiCl

Row | Binder | binding result
1 | B1 | binds
2 | B2 | binds
